Literature values as cited in publication PMC7866529.
Read-outs that look alike come from different tables or passages of the source.

Key:
S100B (Homo sapiens) [1] = target: S100B (Homo sapiens) (UniProt P04271)
S100B (Homo sapiens) [2] = target: S100B (Homo sapiens) (UniProt P04271); remark: listed apart in the source

Kd (S100B (Homo sapiens) [1]) [µM] | Kd (S100B (Homo sapiens) [2]) [µM] | Substance
< 0.0005 |  | S100B (from UniProt P04271)
 | 0.26 | TRTK12
